From the DeepSol protein solubility set

assay: soluble on expression in E. coli; label from the status in PepcDB or PDB records

Sequence	soluble on expression in E. coli
LGTERQREHPFIVTEPGEVARGKKNGLDYLFHLYEQCREFLLQVQTIAKDRGEKCPTKVTNQVFRYAKKSGASYINKPKMRHYVHCYALHCLDEEASNALRRAFKERGENVGSWRQACYKPLVNIACRHGWDIDAVFNAHPRLSIWYVPTKLRQLCHLERNNAVAAAAALVGGISCTGSSTSGRGGCGGDDLRF	soluble
LKLTPRQYNDVYEVNYDFINNVRYLMDDVVRGYDYALERYYDFLDVRNDDLRWILSSAQYRRFMRAEHFYRPIYAHENKWHFRIYLVYNNVNFFYYGKPHHYASYCGGHYRTHFNNVSYYKTHYRDHYRHDVYDGHYRIRHDRMTYDMHRRRDFNIAVRPPQKEHHRPATPPQTRPNRPQIHPDRP	not soluble
LLHGDFELAVPGGPVAAYYAAPAGREQLPIVLVVQEIFGLHEHIKDVCRRLAHDGYLAVSVNLYQRQGDASRYDNIPGLVAELVSKVPDEQVHADLDASLAWAAAHGGDGARVGVTGFCWGGRTTWMYAARNPAVKAGVAWYGRLSSGHGPLIKQVPLDVAGSLHAPVLGLYGGKDESIPLDDVRAMEARLQQGGAPAQASRIVVYPQAGHAFLADYRPSYRAADAQDGWRRMLDWFALYL	not soluble
LLSPPIALKPLDSSAKWRIIYWNPNGCDKTCLKQLNMLGRVRLSFGRKLYQVDEWLLLSNKDSLIAEELKPILKEQDIHVAALSLTEMSKLSTLYPEAKIFIANPDNYLILSYQPGCNPGDIYKDLKLLLNTTEIKSG	soluble
LMINDVPGLVTAWWDEELQALRIKWFTEYAEGSAVADAVEFAMTYVNENGVKNWLCDLSESQEALKAEDQEWVQTEFKRLIAESSLEKVVLIPPLPETGQDTEWLKDWEANTKRDYGGQIDARLLSEEGEIQRFFEKG	not soluble
LPGRFQRSDVERVVTACSAALGLSSACLRALLVMVHATRPSDWRDEQRDAVCFMQQVQVAARLGVTPRALRYQEARLERLGLLRRNVAADGSRGRFGGGDLIQGISFAPLIEAFPSLLRIAEQLEAAERERQVLRRRVSAARRILSQTLTRLAALDKAVPGLTEVLASMPRRYDALDGSELGALLQRVDKAAREALRHLEVQQVSSGVPENSFRPHIQDTTQENPVCSGSSAIERTARKRADSIKPDAAPDGTASCYEKKHGLADRGFKPRYLDTFTPTQLYEAASPDMQMYLDAGRRSDSTLTAHDFIQAAIAILPALGVNASAWDEAADTMGDLPAALCVLVLDANRYRPVNPVWSPGGMLRAMTARARSGGLNLHGSLIALQRRAG	not soluble
LQELETAVAETGFSRFPVTGKDGSYLGYVHIKDVLDRFDHSSPDTIIHRSEIRPLIIVDAAGTMDEALQSMHSKSAHMAQVRDRGLLLGVITLEDLIEEYVGTFSDWTHEQS	not soluble
LQERELAKAAQEAEKKGEAFPDVPVTLYEAIVRDYTGRTPEAREQTLIVTHLNEDRRVLNSMIQDALAKPGEQQVTVPVLTTANIRDGELRRLSTWEAHPGALALVDNVYHRIAGISKEDGLITLEDKAGNTRLISPREAAAEGVTLYNPETIRVGAGDRMRFTKSDRERGYVANSVWTVTAVSGDSVTLSDGKQTRVVRPGQDRAEQHIDLAYAITAHSAQGASETFAIALEGTEGGRKQMAGFESAYVALSRMKQHVQVYTDDRQGWVKAINSAEQKGTAHDVLEPKSEREMMNAERLFSTARELRDVAAGRAVLRNAGLAQGDSRARFIAPGRKYPQPYVALPAFDRNGKSAGIWLNPLTTDDGAGLRGFTGEGRVKGSEEAQFVALQGSRNGESLLAGSMQDGVRIARENPDSGVVVRIVGDGRPWNPVAITGGRVWGDIPDSNVQPGAGNGEPVTAEILAQRQAEEAVRRETERRADEIVRKMAEDKSDLPEEKTAQAVREIAGQEQDRMTPPEREPPLPESVLREPQRER	not soluble
LRVFSSDGKLIAEFGEMRRTPIRFAEIPPNFINALLSAEDDNFANHYGVDPSSLMRAATQLVKSGHIQSGGSTITMQVAKNFFLTSERSFSRKTTEILLALQIERQLTKDEILELYVNKIYLGNRAYGIEAAAQVYYGKSIRDVSLAQMAMIAGLPKAPSRFNPLANA	not soluble
LTPILGYGRVRAKVSADIDFTSYEQTQELFNPELSALRSEQTMQESRNASNEASGVPGTLSNTPQPNSSLGQKNNPQQNATPNNLPQQTSSDQMQAKDVRMQTTKNFELDKTISHTKNQPGTIKRLSVAVLVDNRPVMNDKTKKLEKKPLTKEEIEQIKLLVSDAIGLNVKRGDSLNVINSSF	not soluble
LVCRGSNEPTYCLCHQVSYGEMIGCDNPDCPIEWFHFACVDLTTKPKGKWFCPRCVQEK	soluble
LVPRGSHMTNDTSGVLTIATTHTQARYSLPEVIKAFRELFPEVRLELIQGTPQEIATLLQNGEADIGIASERLSNDPQLVAFPWFRWHHSLLVPHDHPLTQISPLTLESIAKWPLITYRQGITGRSRIDDAFARKGLLADIVLSAQDSDVIKTYVALGLGIGLVAEQSSGEQEEENLIRLDTRHLFDANTVWLGLKRGQLQRNYVWRFLELCNAGLSVEDIKRQVMES	soluble
LYIRGLQPGTTDQDLVKLCQPYGKIVSTKAILDKTTNKCKGYGFVDFDSPSAAQKAVTALKASGVQAQMAKQ	soluble
MAAAVRQDLAQLMNSSGSHKDLAGKYRQILEKAIQLSGTEQLEALKAFVEAMVNENVSLVISRQLLTDFCTHLPNLPDSTAKEVYHFTLEKIQPRVISFEEQVASIRQHLASIYEKEEDWRNAAQVLVGIPLETGQKQYNVDYKLETYLKIARLYLEDDDPVQAEAYINRASLLQNESTNEQLQIHYKVCYARVLDYRRKFIEAAQRYNELSYKTIVHESERLEALKACTGTAPILVSAGDSSALGGRAIFFKDKRCQQLAAYGILEKMYVDRIIRGNQLQEFAAMLMPHQKATTADGSSILDRAVIEHNLLSASKLYNNITFEELGALLEIPAAKAEKIASQMITEGRMNGFIDQIDGIVHFETREALPTWDKQIQSLCFQVNNLLEKISQTAPEWTAQAMEAQMAQ	soluble
MAAPAALKRISATVWELPVSYKKGMLVPARIIATEKLINAMDAGVFEQVSNVACLPGIQKYAFCMPDGHWGYGFPIGGLAAMDPETGVISPGGIGFDINCGMRLVLTTLTYEEVKPRLRELVDALFYRVPAGVGSHGFVRLSHDEFCRVAEQGSSWCLKHGYAWPEDLEMTEEHGCFTGADATKVSQRAVDRGYNQIGTLGSGNHYLEVQVARPENIFDEDTARAFGITVPNQVVIMFHCGSRGFGHQVATDYLQLFLSVMEKKYGIRTNDRELACAPFRSREGQDYFAAMKCAVNMAFANRQVILHRIREVFSDVFGRDPGDLGMDMVYDVAHNTAKLETHLVDGKKRELLVHRKGATRAFGPGMEGIPARYRETGQPVIIGGSMETGSYLLAGDPGGGDTFFTTAHGSGRTMSRHQAKKLIKGQKLQRDMEERGIYVRTASWGGLAEEAGQAYKNIDDVAEATELSHLSRRVARLVPIGNVKGLEHHHHHH	not soluble
MAAPVAPSEPQASRAPQPPVCLLVLGMAGSGKTTFVQRLTGHLHNKGCPPYVINLDPAVHEVPFPANIDIRDTVKYKEVMKQYGLGPNGGIVTSLNLFATRFDQVMKFIEKAQNTFRYVLIDTPGQIEVFTWSASGTIITEALASSFPTVVIYVMDTSRSTNPVTFMSNMLYACSILYKTKLPFIVVMNKTDIIDHSFAVEWMQDFEAFQDALNQETTYVSNLTRSMSLVLDEFYSSLRVVGVSAVVGTGFDELCTQVTSAAEEYEREYRPEYERLKKSLANAQSNQQKEQLERLRKDMGSVALDPEAGKGNASPVLDPSDLILTRGTLDEEDEEADSDTDDIDHRVTEESREEPAFQNFMEESMAHWKRNK	not soluble
MAAQQPLSQEQLLHFWGAHNTMGKMTRRTSQSDGGKPSGNSNAAGGAGTKPKVATPQVVAKIEQYKRDNPTIFAWEIREKLISEDVCTTPPSVSSINRILRTRAAERAAEELQMILSAQHLARPRAQQVRLPPAFPFPFPLVWPGLLPNPAQLSLLLNSGALAPPVQSGGAGGPGVFGNSGQISVDSNLNLSEDDSTLGANARRLSRSTFTNEQLQSLEEVFLRDPYPSPNERADLVKRTNLPEARIQVWFSNRRAKWRKTNANGSDRDELRAERSETDDALSISSQSPSPGGGQETGSDEGKKKTITLFKPYE	not soluble
MAARHAVRGGTVYGGGNGYRVNLVGRGTGGSTMVHHQPLNRISSQRSVAPVGRVLNRGALRNGAQQPLHVSTSSPAFHYMEEQPSPTTNGMVIQAKTPGAGVIQARHMQSQQSFPSGGPARVLMNRSSTNAGLSRMVGGGYDQQLPTAPNGRLMIPSTAVRVPGSGMASPRLQTTPQPLTKSQKAKDEMKMAYQVGREEALQQRRNDLEDDEENLGYAETYSEYTPAKLRSGMAHPDSVVESASLSSVSPPDVKYQISIPEYLIDMGHISALQLEAVIYACQMHERRMPSGERYGYLIGDGAGVGKGRTVACIIFENYLQGRKRAIWLSVSSDLKFDAERDLRDCGAPNIPVYALNKMKYAKISGKENGSIKKGVMFATYTSLIGECRGAKSRKYRSRISQLIQWFGQDYDGVIILDECHRAKNLVPTAGAKPTKTGRMVLELQKALPNARVVYASATGATEPRNMAYMTRLGLWGERQAFPEFHDFISAVERRGVGAMEIVAMDMKQRGLYLARQLSFRGVSFAVQEVQLSSEFVKMYDAAVKLWMEARRQFQTVIETMDEEERSTCKTVWGQFWACHQRFFKYLCIAAKVDTCVQLSREAIKAKKCVVIGLQSTGESATLETLEEMGGELNEFVSTAKTVLYGLIDKHFPTDASFSMGDRDIFKDFDDFERPAKRRKTRETLSFLGDVGFDTWTGVTTGMGGRVGDGVTKNITRGLSGIGRSSMSSSTGNTNNEDANSTTSESSDGSDDEVENDMISENGGESGDLESAREEAEGARTLEDGEQDEWVKALLAEAESSSDDSDEEVVKDEDEDEEAESKSGETHEQEEEFNPFMCDFTNDDPWAHNQQIVEDTPQKDRKAKKRKRDEEEAERLREKVRKREERREKKRRRAIRRAEREKQRRNEELQARGSATDFITSSRICGNGSGEQDDINPMLIKTELLAAVERLAPSLPANTLDQLIDEMGGPEYVAEMTGRRGHMVTSETGDVMYQRRNANAEVSLELINMEEKEKFMRGEKLIAIISEAASSGISLQSDRRAINKRRRVHITLELPWSADKAIQQFGRTHRSNQVSGPEYVFLISELAGEKRFASIVAKRLESLGALTHGDRRATETRDLSQFNMDNKYGRVALDTLLKTVIGQAGTPLIDPPKDYKAGEFFEDMRLYMEGVGLLAKNKTGQYTIEKEAATIPKFLNRILGLPVHAQNSLFHYFSEIVAELIAQSKHDGTYDTGIMDLGTGDDQVRKLETRVFTGRVDNGSFRVEIHKIGVERGVSWEEAMELHKEHSNDDDGFYICHPGGANTANTKKVAALVYGIGKIRMDNGARLYAITRPSTGRSPKLMTMADLSKRFHKVSIDEAKEVWKQQYDSAANMCQHNYVYGKCRTESNGTYCEVGRRTRTYFVLSGSVLSVWPIVEEVLAGSDRKSSRMQVIRVRTEQDQKIVGKLVVFFGK	not soluble
MAARPKLHYPNGRGRMESVRWVLAAAGVEFDEEFLETKEQLYKLQDGNHLLFQQVPMVEIDGMKLVQTRSILHYIADKHNLFGKNLKERTLIDMYVEGTLDLLELLIMHPFLKPDDQQKEVVNMAQKAIIRYFPVFEKILRGHGQSFLVGNQLSLADVILLQTILALEEKIPNILSAFPFLQEYTVKLSNIPTIKRFLEPGSKKKPPPDEIYVRTVYNIFRP	soluble
MAASITAITVENLEYPAVVTSPVTGKSYFLGGAGERGLTIEGNFIKFTAIGVYLEDIAVASLAAKWKGKSSEELLETLDFYRDIISGPFEKLIRGSKIRELSGPEYSRKVMENCVAHLKSVGTYGDAEAEAMQKFAEAFKPVNFPPGASVFYRQSPDGILGLSFSPDTSIPEKEAALIENKAVSSAVLETMIGEHAVSPDLKRCLAARLPALLNEGAFKIGN	soluble
